Reference: IntAct's records for PubMed 26635368

B1: Sprouty-related, EVH1 domain-containing protein 1 (Homo sapiens), Q7Z699 (parent)
chain: MSEETATSDNDNSYARVRAVVMTRDDSSGGWLPLGGSGLSSVTVFKVPHQEENGCADFFIRGERLRDKMVVLECMLKKDLIYNKVTPTFHHWKIDDKKFGLTFQSPADARAFDRGIRRAIEDISQGCPESKNEAEGADDLQANEEDSSSSLVKDHLFQQETVVTSEPYRSSNIRPSPFEDLNARRVYMQSQANQITFGQPGLDIQSRSMEYVQRQISKECGSLKSQNRVPLKSIRHVSFQDEDEIVRINPRDILIRRYADYRHPDMWKNDLERDDADSSIQFSKPDSKKSDYLYSCGDETKLSSPKDSVVFKTQPSSLKIKKSKRRKEDGERSRCVYCQERFNHEENVRGKCQDAPDPIKRCIYQVSCMLCAESMLYHCMSDSEGDFSDPCSCDTSDDKFCLRWLALVALSFIVPCMCCYVPLRMCHRCGEACGCCGGKHKAAG

Variants of: B1
Conditions: with nf1_human NF1, P21359
nf1_human NF1, P21359, sequence (P21359 whole entry): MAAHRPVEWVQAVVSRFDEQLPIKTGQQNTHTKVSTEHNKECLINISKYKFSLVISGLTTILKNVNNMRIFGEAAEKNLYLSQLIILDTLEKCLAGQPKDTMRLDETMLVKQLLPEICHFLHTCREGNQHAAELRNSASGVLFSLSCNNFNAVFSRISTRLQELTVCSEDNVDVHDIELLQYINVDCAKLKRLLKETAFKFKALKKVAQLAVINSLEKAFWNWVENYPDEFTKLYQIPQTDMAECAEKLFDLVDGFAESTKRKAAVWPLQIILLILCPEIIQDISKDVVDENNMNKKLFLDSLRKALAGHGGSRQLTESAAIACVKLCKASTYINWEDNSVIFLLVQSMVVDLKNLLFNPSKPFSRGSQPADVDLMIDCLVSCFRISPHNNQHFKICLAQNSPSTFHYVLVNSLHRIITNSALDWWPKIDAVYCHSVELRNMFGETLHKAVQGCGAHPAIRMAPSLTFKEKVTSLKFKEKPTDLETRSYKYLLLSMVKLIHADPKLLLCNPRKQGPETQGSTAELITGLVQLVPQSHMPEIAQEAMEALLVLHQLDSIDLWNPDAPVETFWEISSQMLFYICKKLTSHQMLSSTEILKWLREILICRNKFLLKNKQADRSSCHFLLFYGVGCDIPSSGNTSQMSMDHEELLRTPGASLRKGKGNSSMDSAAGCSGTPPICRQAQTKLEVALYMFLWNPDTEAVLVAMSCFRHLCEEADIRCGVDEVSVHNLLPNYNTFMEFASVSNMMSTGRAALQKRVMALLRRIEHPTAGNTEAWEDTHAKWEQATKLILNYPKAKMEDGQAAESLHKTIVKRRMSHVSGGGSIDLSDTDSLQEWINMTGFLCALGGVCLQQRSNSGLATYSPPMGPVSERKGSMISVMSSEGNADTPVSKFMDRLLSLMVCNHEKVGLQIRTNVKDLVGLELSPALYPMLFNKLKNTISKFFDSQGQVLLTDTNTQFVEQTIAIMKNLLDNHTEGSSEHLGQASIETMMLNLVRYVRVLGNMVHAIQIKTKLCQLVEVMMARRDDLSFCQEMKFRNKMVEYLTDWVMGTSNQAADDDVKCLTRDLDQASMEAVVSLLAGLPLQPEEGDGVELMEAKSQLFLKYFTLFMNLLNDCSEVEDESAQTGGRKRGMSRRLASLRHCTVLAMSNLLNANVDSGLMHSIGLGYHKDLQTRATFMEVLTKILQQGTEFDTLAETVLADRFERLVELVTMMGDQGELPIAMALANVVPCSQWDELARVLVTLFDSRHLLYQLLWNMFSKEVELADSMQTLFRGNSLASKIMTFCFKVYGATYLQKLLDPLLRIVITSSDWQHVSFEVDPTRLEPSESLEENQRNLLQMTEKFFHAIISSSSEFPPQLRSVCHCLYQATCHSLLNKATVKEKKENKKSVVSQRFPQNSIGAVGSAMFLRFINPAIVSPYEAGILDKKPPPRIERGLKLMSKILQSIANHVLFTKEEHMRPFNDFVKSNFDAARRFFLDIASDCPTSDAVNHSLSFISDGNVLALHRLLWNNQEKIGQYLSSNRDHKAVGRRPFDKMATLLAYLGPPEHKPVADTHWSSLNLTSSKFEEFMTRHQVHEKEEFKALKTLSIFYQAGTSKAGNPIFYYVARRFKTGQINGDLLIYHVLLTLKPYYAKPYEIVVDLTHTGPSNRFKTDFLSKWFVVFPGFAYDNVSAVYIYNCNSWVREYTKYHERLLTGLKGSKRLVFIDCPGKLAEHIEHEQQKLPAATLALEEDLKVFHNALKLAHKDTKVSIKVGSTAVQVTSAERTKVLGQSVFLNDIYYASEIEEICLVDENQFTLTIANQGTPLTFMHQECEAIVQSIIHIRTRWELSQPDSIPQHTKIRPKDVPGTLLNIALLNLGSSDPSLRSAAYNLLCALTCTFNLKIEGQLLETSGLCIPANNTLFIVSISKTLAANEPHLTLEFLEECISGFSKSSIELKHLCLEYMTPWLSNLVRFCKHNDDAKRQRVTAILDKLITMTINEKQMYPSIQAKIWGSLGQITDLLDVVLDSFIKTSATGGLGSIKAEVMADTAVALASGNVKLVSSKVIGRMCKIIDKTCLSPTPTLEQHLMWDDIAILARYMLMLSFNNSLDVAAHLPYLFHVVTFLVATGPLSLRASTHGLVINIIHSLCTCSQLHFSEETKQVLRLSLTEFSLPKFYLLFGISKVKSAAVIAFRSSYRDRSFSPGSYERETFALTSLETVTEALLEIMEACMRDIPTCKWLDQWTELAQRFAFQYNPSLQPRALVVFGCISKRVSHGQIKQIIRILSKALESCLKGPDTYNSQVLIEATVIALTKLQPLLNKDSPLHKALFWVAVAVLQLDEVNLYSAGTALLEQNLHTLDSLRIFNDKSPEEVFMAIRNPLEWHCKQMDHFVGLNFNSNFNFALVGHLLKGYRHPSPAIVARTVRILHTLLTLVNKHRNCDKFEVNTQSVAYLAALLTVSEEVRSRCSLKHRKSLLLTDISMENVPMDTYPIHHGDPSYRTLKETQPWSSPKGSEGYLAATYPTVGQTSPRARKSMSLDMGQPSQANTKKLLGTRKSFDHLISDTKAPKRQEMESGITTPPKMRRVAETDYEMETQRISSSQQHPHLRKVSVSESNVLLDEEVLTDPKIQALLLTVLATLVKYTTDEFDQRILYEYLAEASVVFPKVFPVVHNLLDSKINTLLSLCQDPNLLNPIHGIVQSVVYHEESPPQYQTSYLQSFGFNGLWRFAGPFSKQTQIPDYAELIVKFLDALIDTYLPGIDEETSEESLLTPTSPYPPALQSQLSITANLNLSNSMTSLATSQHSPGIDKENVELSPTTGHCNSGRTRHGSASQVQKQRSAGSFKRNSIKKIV

Variant | effect of a mutation on the interaction
I116N | decreasing interaction strength
N10K | with no effect
T102M | decreasing interaction strength
T102R | decreasing interaction strength
T102K | disrupting interaction strength
V44D | disrupting interaction strength
D9V | with no effect
L80R | decreasing interaction strength
V42I | with no effect
R24Q | decreasing interaction strength
W92R | disrupting interaction strength
G30R | decreasing interaction strength
W31C | decreasing interaction strength
W31L | disrupting interaction strength
T88K | disrupting interaction strength
G62R | decreasing interaction strength
C74F | with no effect
G100D | decreasing interaction strength

Variants of: B1
Conditions: with nf1_human NF1, P21359
Remark: another data set of the same source

Variant | effect of a mutation on the interaction
T102R | disrupting interaction strength

Variants of: B1
Conditions: with nf1_human NF1, P21359
Remark: another data set of the same source

Variant | effect of a mutation on the interaction
G30R | disrupting interaction strength
W31C | disrupting interaction strength
